Experimental data reported in the supplement of paper PMC10126150.
± gives the standard deviation of the averaged measurements.

Tested on: ATP
Test: switch fluorescence ratio, 500 uM ATP over buffer (Cy3 cluster intensity, sum of 5 cycles each) (fold (ratio)); higher = stronger signal-on switching upon ATP binding; sequences stand for … in TCGTCGGCAGCGTCAGATGTGTATAAGAGACAGTTTTTTTTTTTTTTTTTTTTTTTTT…TC
Conditions: aptamer strand: ATP DNA aptamer (quencher-CACCTGGGGGAGTATTGCGGAGGAAGG + anchor), 100 nM annealed; ATP concentration: 500 uM
Outline: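 For every switch-domain sequence, the fluorescence ratio is the mean of per-cluster values, each being summed target-cycle Cy3 intensity over summed buffer-cycle Cy3 intensity. Clusters outside 100-1000 RFU were excluded. On a modified Illumina MiSeq flow-cell, the Cy3-labelled switching-strand clusters were annealed to 100 nM quencher-labelled ATP aptamer, imaged in selection buffer and then after 15 min with 500 uM ATP at 22 °C. Five such cycles were run, with NaOH stripping and re-annealing between them.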
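Note: ATP exposure 15 min at 22 °C before imaging.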

| Sequence | switch fluorescence ratio |
| --- | --- |
| TTTCGGGTGG | 0.979 ± 0.023 |
| AATGAGGGTC | 0.989 ± 0.11 |
| TTTTATGAGG | 0.973 ± 0.03 |
| GAGGCAGTTA | 1.11 ± 0.046 |
| GCGTTAAGCA | 0.968 ± 0.07 |
| TAGATAGCTT | 1.0112 ± 0.001 |
| TCATACGTCG | 1.03 ± 0.036 |
| CGCACGATGC | 2.89 ± 0.32 |
| TGGTTTATTC | 0.986 ± 0.051 |
| CGCTCCGATG | 1.26 ± 0.025 |
| CCCTAGGGTC | 1.01 ± 0.023 |
| TGCTGTTGGC | 0.928 ± 0.025 |
| TCATCAGTCT | 0.995 ± 0.039 |
| TTTTCTGCCG | 1.03 ± 0.045 |
| AATGGGATTG | 0.972 ± 0.0096 |
| TTGCTTGCGG | 0.991 ± 0.041 |
| ATTAGGACGT | 0.984 ± 0.032 |
| TTAGAGATTC | 0.961 ± 0.031 |
| GGTTTACGGT | 1.007 ± 0.0018 |
| GGAAAAAGTG | 0.991 ± 0.014 |
| GTATTGGTTG | 0.983 ± 0.026 |
| GCCGGAGTTA | 1.06 ± 0.017 |
| ATGCAATGGA | 1 ± 0.064 |
| CGGAGGACGG | 1.03 ± 0.032 |
| ACTTGTGGCT | 1.01 ± 0.018 |

| Sequence | switch fluorescence ratio |
| --- | --- |
| CGTGGGGACT | 0.991 ± 0.027 |
| TTGGGCCCAA | 1 ± 0.041 |
| GGCGTTTTTG | 1.02 ± 0.046 |
| AGAGAGGGGT | 1.01 ± 0.047 |
| TTGATGGCGA | 1.22 ± 0.3 |
| TTTTCGATTG | 1.01 ± 0.041 |
| TTGACCCAGG | 1.23 ± 0.11 |
| GAAACTGGAA | 0.997 ± 0.016 |
| CGGGTTTGGT | 1.01 ± 0.011 |
| TATTGGGTCA | 0.996 ± 0.03 |
| GGGGAGATGT | 1.01 ± 0.014 |
| TGCGGGGTCA | 1.02 ± 0.034 |
| TTTTGCTGAC | 1.14 ± 0.1 |
| TACGGTGGGC | 0.977 ± 0.018 |
| TCAGGGATT | 1.01 ± 0.057 |
| ACGTTGGGGC | 1.04 ± 0.027 |
| AAAGGTATGG | 0.961 ± 0.018 |
| GCTGAACTTC | 0.9804 ± 0.0089 |
| TGTAAAAAGC | 1.018 ± 0.0059 |
| CGTGACCAGG | 1.14 ± 0.029 |
| AAGTATGTAT | 1.02 ± 0.041 |
| AAAGTTTTCA | 1.02 ± 0.028 |
| TTCTTTGATT | 1 ± 0.011 |
| TTTGTATTCG | 1.004 ± 0.0064 |
| TGGGCGAACG | 0.9626 ± 0.0022 |

| Sequence | switch fluorescence ratio |
| --- | --- |
| TTGGAATTGA | 0.992 ± 0.012 |
| GGCGGGAATT | 0.972 ± 0.031 |
| GTAGGCGGTG | 0.984 ± 0.029 |
| GGGCAAGGCG | 1.006 ± 0.0092 |
| CCGTTTATAT | 1.4 ± 0.13 |
| TATGAGAAGC | 1 ± 0.017 |
| GCGGGGGCGG | 1.01 ± 0.018 |
| TTAGTTTGCT | 1.01 ± 0.019 |
| GTCCTTATTT | 1.08 ± 0.022 |
| CAGTAAGAAT | 0.9809 ± 0.0019 |
| CCGTTGTTTG | 0.979 ± 0.011 |
| CGGTTTGCGT | 0.9748 ± 0.0029 |
| CGGGGCGCGA | 1.1 ± 0.049 |
| AACTCTGAGA | 1.03 ± 0.013 |
| ACAGGAAGAT | 1.03 ± 0.035 |
| AAGGGGAAAA | 0.983 ± 0.02 |
| AAGGGCGGAT | 1.02 ± 0.021 |
| AGTTTGAAAG | 1.01 ± 0.017 |
| GTCCGGGGCT | 1.04 ± 0.036 |
| TTGTGCCTAT | 1.005 ± 0.0071 |
| TGTTTTAGGG | 0.993 ± 0.035 |
| CAAGGTCAGC | 0.9798 ± 0.0071 |
| TTTTGGGCTG | 1 ± 0.067 |
| AGGTACTCCG | 1.09 ± 0.015 |
| GTCGGGGGTG | 0.983 ± 0.041 |

| Sequence | switch fluorescence ratio |
| --- | --- |
| AGCGGAGTGA | 1.007 ± 0.0093 |
| GGTTGGGTTT | 0.989 ± 0.03 |
| TGGGGGAAGA | 1.03 ± 0.069 |
| AAGGCTGGGT | 1.02 ± 0.023 |
| AAATCGCAGA | 1 ± 0.025 |
| AAAAGGATAG | 0.954 ± 0.017 |
| TCAGGGTCAG | 1.007 ± 0.0063 |
| AATCATTATT | 1.01 ± 0.017 |
| GGGTGGTGCT | 0.978 ± 0.021 |
| GGTTGTTCGT | 1.006 ± 0.0037 |
| ATTTCAGCGA | 1.09 ± 0.014 |
| GATGTTTTTT | 1.07 ± 0.14 |
| GTAGCGAGAG | 2.11 ± 0.24 |
| GGGGACGCTG | 0.98 ± 0.012 |
| ACCACGGTTG | 1.07 ± 0.023 |
| TTGGAATGGT | 1.04 ± 0.029 |
| GGTTAAGGTG | 1.28 ± 0.071 |
| GTGGGGGAAT | 1 ± 0.011 |
| GGATGGACTG | 0.937 ± 0.035 |
| ACTGTGGGGC | 0.9788 ± 0.0057 |
| TTGACTGGTG | 1.02 ± 0.013 |
| CCTAATGCCG | 0.996 ± 0.04 |
| TGAAGGATGG | 1 ± 0.027 |
| AGGTCTAGAG | 0.976 ± 0.024 |
| ATTAAGGTCG | 1.07 ± 0.023 |

| Sequence | switch fluorescence ratio |
| --- | --- |
| TACAGGTCAT | 1 ± 0.018 |
| GGGGCGGCCT | 0.979 ± 0.04 |
| GATGCGCCGG | 1.03 ± 0.034 |
| ACGTTCGTAC | 1.04 ± 0.012 |
| AAATTGGGAT | 0.9636 ± 0.0093 |
| CCGATTGGCA | 1.55 ± 0.14 |
| GGATATGGCA | 1.01 ± 0.037 |
| GTCCATCCCA | 1.001 ± 0.009 |
| TCCATTTTAA | 1.055 ± 0.0017 |
| TTCACTTGTG | 1 ± 0.018 |
| CAGGGCTATT | 1.01 ± 0.037 |
| GATGACCTTT | 1.07 ± 0.14 |
| TCAGCGTGGG | 1.04 ± 0.054 |
| AGGGGGTAAC | 1 ± 0.051 |
| TGTATGTTTT | 0.962 ± 0.046 |
| CCTCGCGGGG | 1.08 ± 0.032 |
| TCATCTCTGG | 0.992 ± 0.024 |
| CAGAGGATAG | 1.017 ± 0.0088 |
| AGGGCTTTAC | 1.1314 ± 8.1e-05 |
| AATAAACAAA | 0.978 ± 0.013 |
| CGTTTCTAAG | 0.967 ± 0.03 |
| CTACGTTGGA | 1.03 ± 0.02 |
| ATGTCCCGTT | 0.98 ± 0.014 |
| TAGTAGTCGG | 0.963 ± 0.036 |
| CGTATCCCGT | 0.974 ± 0.014 |

| Sequence | switch fluorescence ratio |
| --- | --- |
| AAAGTTTTGT | 0.983 ± 0.023 |
| AGATGGCCGG | 1 ± 0.065 |
| ATTATTATGG | 1.01 ± 0.015 |
| ACGTGGTGTG | 1.015 ± 0.0075 |
| ATCCGGTTTG | 0.982 ± 0.041 |
| TTCTAAGTA | 1.021 ± 0.0044 |
| AGGGGGCGCC | 1.02 ± 0.016 |
| AAAAAAACA | 1.2 ± 0.11 |
| ATAATTGGTG | 1.03 ± 0.018 |
| GGGGTATTGA | 1.03 ± 0.037 |
| TTAAACTCGG | 0.998 ± 0.053 |
| CACTTCTTAT | 0.973 ± 0.021 |
| CCAATAAATT | 0.974 ± 0.018 |
| ATCGAGGCGT | 1.01 ± 0.019 |
| CCCGGGGGCT | 1.41 ± 0.032 |
| TGTTTGTAT | 0.9851 ± 0.0015 |
| GACAAAAGGT | 1.03 ± 0.013 |
| TTTTGAGGGC | 1.01 ± 0.059 |
| AGCACATGTC | 1.07 ± 0.027 |
| ATGTGAGTAT | 0.9753 ± 0.0028 |
| TGCACCGGGG | 1.02 ± 0.016 |
| GGGGTCGATG | 0.9847 ± 0.0042 |
| CTGGAATCCG | 1.08 ± 0.015 |
| GGGAGTCCAA | 0.995 ± 0.019 |
| CGTGGCTAAG | 0.971 ± 0.046 |

| Sequence | switch fluorescence ratio |
| --- | --- |
| AGTGAATTCA | 1.016 ± 0.0062 |
| TGGTACTTGT | 1.01 ± 0.027 |
| TAAGTGAAAA | 0.995 ± 0.0094 |
| TTAATCGTGC | 0.98 ± 0.043 |
| ATTGTGGATC | 1.03 ± 0.031 |
| CGGTTACCTG | 0.9708 ± 0.0074 |
| AAGAGTCGTA | 0.969 ± 0.027 |
| GATATTGCGA | 1.02 ± 0.035 |
| TTGTAAGTTT | 0.985 ± 0.049 |
| TTTTTAGGGG | 1.02 ± 0.055 |
| TTTTATTATC | 0.9986 ± 0.0079 |
| AATATTAGCC | 0.957 ± 0.02 |
| TATAACACTT | 1.05 ± 0.024 |
| GGTACTTTGT | 1.03 ± 0.039 |
| GGGGCGTACG | 1.05 ± 0.2 |
| AGGGAGGATC | 1.02 ± 0.017 |
| AGTCAAGGGT | 1 ± 0.0014 |
| GGCATTCGTG | 0.9743 ± 0.0049 |
| TTCTTTTATA | 0.99 ± 0.04 |
| CCCAATTCCT | 1.14 ± 0.031 |
| TAAGTATTTT | 1.01 ± 0.027 |
| TTATCGCTTG | 0.9974 ± 0.003 |
| GTAATAGGGT | 1.01 ± 0.033 |
| GAGTGGTACC | 1.01 ± 0.025 |
| GCTTTTAAGT | 0.99809 ± 0.00068 |

| Sequence | switch fluorescence ratio |
| --- | --- |
| TTCGGCTTTT | 0.983 ± 0.024 |
| GTTTCTTTGG | 1.06 ± 0.13 |
| TTGGTATCTT | 0.999 ± 0.025 |
| GGTATGCAGG | 0.985 ± 0.026 |
| TTTTAGAGTT | 0.982 ± 0.013 |
| GTTACTTGCC | 0.992 ± 0.039 |
| CCGATTAAAT | 1.44 ± 0.1 |
| GCTCTTGGGC | 0.999 ± 0.012 |
| TACAAGGAGA | 1 ± 0.012 |
| TAAGGTGATG | 1.01 ± 0.046 |
| TGGTTGCGTG | 1 ± 0.015 |
| ATCGGGGGCT | 0.98 ± 0.038 |
| AGCGCCAACA | 1.02 ± 0.017 |
| AATCAGCGTC | 0.986 ± 0.023 |
| GGGGGCCTAA | 1 ± 0.028 |
| CAAGTGTTCG | 0.996 ± 0.03 |
| ACTGGTTATT | 1 ± 0.016 |
| GATTTAAGAG | 0.988 ± 0.029 |
| GGGATCGCTA | 1 ± 0.018 |
| ATCCCGGGGA | 0.962 ± 0.014 |
| TATTTCATAT | 1 ± 0.013 |
| TTCGGTGGGG | 0.9805 ± 0.0094 |
| TTGGTAATGG | 1.04 ± 0.051 |
| TATAATTGCG | 0.977 ± 0.036 |
| TTTTTTAAGC | 1.01 ± 0.018 |
